Assay results from patent US20220054583A1 (ANBITION S R L, published 2022).

Columns and labels:
[1] = biological target: human recombinant receptor VEGFR-1, seven extracellular domains fused to the Fc domain of human IgG (R&D Systems, cat No 321-FL) (human) (UniProt P17948); test: competition ELISA, residual binding of PlGF (5 ng/ml) to coated VEGFR-1-Fc, peptide 780 nM
[2] = biological target: human recombinant receptor VEGFR-1, seven extracellular domains fused to the Fc domain of human IgG (R&D Systems, cat No 321-FL) (human) (UniProt P17948); test: competition ELISA, residual binding of PlGF (5 ng/ml) to coated VEGFR-1-Fc, peptide 1560 nM
[3] = biological target: human recombinant receptor VEGFR-1, seven extracellular domains fused to the Fc domain of human IgG (R&D Systems, cat No 321-FL) (human) (UniProt P17948); test: competition ELISA, residual binding of PlGF (5 ng/ml) to coated VEGFR-1-Fc, peptide 3125 nM
[4] = biological target: human recombinant receptor VEGFR-1, seven extracellular domains fused to the Fc domain of human IgG (R&D Systems, cat No 321-FL) (human) (UniProt P17948); test: competition ELISA, residual binding of PlGF (5 ng/ml) to coated VEGFR-1-Fc, peptide 6250 nM
[5] = biological target: human recombinant receptor VEGFR-1, seven extracellular domains fused to the Fc domain of human IgG (R&D Systems, cat No 321-FL) (human) (UniProt P17948); test: competition ELISA, residual binding of PlGF (5 ng/ml) to coated VEGFR-1-Fc, peptide 12500 nM
[6] = biological target: human recombinant receptor VEGFR-1, seven extracellular domains fused to the Fc domain of human IgG (R&D Systems, cat No 321-FL) (human) (UniProt P17948); test: competition ELISA, residual binding of PlGF (5 ng/ml) to coated VEGFR-1-Fc, peptide 25000 nM
[7] = biological target: human recombinant receptor VEGFR-1, seven extracellular domains fused to the Fc domain of human IgG (R&D Systems, cat No 321-FL) (human) (UniProt P17948); test: competition ELISA, residual binding of PlGF (5 ng/ml) to coated VEGFR-1-Fc, peptide 50000 nM
[8] = biological target: human recombinant receptor VEGFR-1, seven extracellular domains fused to the Fc domain of human IgG (R&D Systems, cat No 321-FL) (human) (UniProt P17948); test: competition ELISA, residual binding of VEGF-A (5 ng/ml) to coated VEGFR-1-Fc, peptide 780 nM
[9] = biological target: human recombinant receptor VEGFR-1, seven extracellular domains fused to the Fc domain of human IgG (R&D Systems, cat No 321-FL) (human) (UniProt P17948); test: competition ELISA, residual binding of VEGF-A (5 ng/ml) to coated VEGFR-1-Fc, peptide 1560 nM
[10] = biological target: human recombinant receptor VEGFR-1, seven extracellular domains fused to the Fc domain of human IgG (R&D Systems, cat No 321-FL) (human) (UniProt P17948); test: competition ELISA, residual binding of VEGF-A (5 ng/ml) to coated VEGFR-1-Fc, peptide 3125 nM
[11] = biological target: human recombinant receptor VEGFR-1, seven extracellular domains fused to the Fc domain of human IgG (R&D Systems, cat No 321-FL) (human) (UniProt P17948); test: competition ELISA, residual binding of VEGF-A (5 ng/ml) to coated VEGFR-1-Fc, peptide 6250 nM
[12] = biological target: human recombinant receptor VEGFR-1, seven extracellular domains fused to the Fc domain of human IgG (R&D Systems, cat No 321-FL) (human) (UniProt P17948); test: competition ELISA, residual binding of VEGF-A (5 ng/ml) to coated VEGFR-1-Fc, peptide 12500 nM
[13] = biological target: human recombinant receptor VEGFR-1, seven extracellular domains fused to the Fc domain of human IgG (R&D Systems, cat No 321-FL) (human) (UniProt P17948); test: competition ELISA, residual binding of VEGF-A (5 ng/ml) to coated VEGFR-1-Fc, peptide 25000 nM
[14] = biological target: human recombinant receptor VEGFR-1, seven extracellular domains fused to the Fc domain of human IgG (R&D Systems, cat No 321-FL) (human) (UniProt P17948); test: competition ELISA, residual binding of VEGF-A (5 ng/ml) to coated VEGFR-1-Fc, peptide 50000 nM

human recombinant receptor VEGFR-1, seven extracellular domains fused to the Fc domain of human IgG (R&D Systems, cat No 321-FL) (human), sequence (P17948 27-758): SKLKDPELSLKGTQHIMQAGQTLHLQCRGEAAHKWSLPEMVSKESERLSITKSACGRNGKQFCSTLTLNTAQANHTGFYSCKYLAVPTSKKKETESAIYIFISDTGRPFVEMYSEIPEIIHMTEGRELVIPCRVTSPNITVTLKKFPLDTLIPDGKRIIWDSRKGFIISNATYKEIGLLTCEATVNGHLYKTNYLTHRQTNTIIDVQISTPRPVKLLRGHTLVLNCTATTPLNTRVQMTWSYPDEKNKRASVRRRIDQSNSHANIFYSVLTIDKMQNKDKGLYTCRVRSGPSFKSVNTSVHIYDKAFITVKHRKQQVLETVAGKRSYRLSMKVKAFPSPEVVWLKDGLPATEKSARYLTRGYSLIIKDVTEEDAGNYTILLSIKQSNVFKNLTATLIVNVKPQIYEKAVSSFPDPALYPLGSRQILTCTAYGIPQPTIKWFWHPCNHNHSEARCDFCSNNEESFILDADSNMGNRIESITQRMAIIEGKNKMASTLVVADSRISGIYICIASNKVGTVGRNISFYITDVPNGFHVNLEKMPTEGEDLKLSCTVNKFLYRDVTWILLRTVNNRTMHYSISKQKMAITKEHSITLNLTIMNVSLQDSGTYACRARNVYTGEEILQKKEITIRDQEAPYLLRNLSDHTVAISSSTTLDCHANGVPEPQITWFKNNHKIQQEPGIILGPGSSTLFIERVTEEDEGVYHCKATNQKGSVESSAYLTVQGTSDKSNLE

control peptide (PC), (S-Ser)-(S-Ala)-(S-Cha) tripeptide with a tetrameric structure identical to the structure of the iVR1 peptides
binding % [1]: 98.9% | binding % [2]: 102% | binding % [3]: 99.5% | binding % [4]: 93.8% | binding % [5]: 87.2% | binding % [6]: 88.5% | binding % [7]: 90.2% | binding % [8]: 100% | binding % [9]: 103% | binding % [10]: 95.2% | binding % [11]: 91.4% | binding % [12]: 100% | binding % [13]: 93.4% | binding % [14]: 87.9%
